Read-outs that look alike come from different tables or passages of the source.

The test system of the data set is cytochrome P-450 reductase from P. somniferum cell suspension cultures. The note with it: for Km: read-out: Km value, purified P. somniferum reductase (mixture of two isozymes). Here is the method:
Purification and sequence analysis. Cells were harvested from seven-day-old suspension cultures of P. somniferum by vacuum filtration, immediately shock frozen and stored at −20° C. All of the following operations were carried out at 4° C. 500 g frozen tissue were then homogenised with a mortar and pestle in 1 liter 0.1 M tricine/NaOH, pH 7.5 containing 15 mM thioglycolic acid. Cell debris was removed by centrifugation at 10,000× g, 30 min. The supernatant was filtered through four layers of cheesecloth and the microsomes were then isolated by MgCl2 precipitation according to (19). […] Microsomal protein was solubilized as follows. 2 mg CHAPS (3[(3-cholamidopropyl)dimethyl-ammonio]-1-propane-sulfonate, Roth) per mg microsomal protein was prepared in 1 mL of 0.1 M tricine/NaOH, pH 7.5 containing 15 mM thioglycolic acid. This solution was added dropwise to the microsomal suspension. 2% (v/v) Emulgen 911 (Kao Corporation) was then added and the solution slowly stirred for 1 h. Membrane fragments were removed by centrifugation at 105,000× g for 60 min. The total activity in the solubilized microsomes was assigned the value 100%. The solubilized cytochrome P-450 reductase was then purified to electrophoretic homogeneity according to (20).
Yeast microsomes were isolated according to either (22) or (23) and the presence cytochrome P-450 reductase was measured as the ability to reduce cytochrome c (24).

As to “purified reductase: cytochrome P-450 reductase purified from P. somniferum cell suspension cultures”, the “optimal molarity range of the Tricine buffer” value lay within 250 to 500 mM. For the same compound, the “activity declined to” value (at 100 mM Tricine) is 21%. Further, the “activity declined to” value (at 1 M Tricine) stood at 77%. The compound further displayed a pH optimum (in 0.5 M Tricine buffer) of 8.0.

`NC(=O)C1=CN([C@@H]2O[C@H](COP(=O)(O)OP(=O)(O)OC[C@H]3O[C@@H](n4cnc5c(N)ncnc54)[C@H](OP(=O)(O)O)[C@@H]3O)[C@@H](O)[C@H]2O)C=CC1` [NADPH, reference compound]: the Km (commonly the concentration of substrate that gives half-maximal velocity) stood at 4.2 µM.

As to cytochrome c [reference compound], the Km turned out to be 8.3 µM.

These data come from patent US7037674B1, “Cytochrome P450 reductases from poppy plants” (priority 1997, dated 2006).
